Where a chain is given by its changes, count along the chain named. Names and notes keep the numbering of the source. Square brackets hold non-standard residues; d marks the D form. Ends that are not written are not given here. pS = N[C@@H](COP(=O)(O)O)C(=O)O
B1: BRCA1 BRCT A1843P (domain or fragment, UniProt P38398 1646-1863, looked up)
chain: VNKRMSMVVSGLTPEEFMLVYKFARKHHITLTNLITEETTHVVMKTDAEFVCERTLKYFLGIAGGKWVVSYFWVTQSIKERKMLNEHDFEVRGDVVNGRNHQGPKRARESQDRKIFRGLEICCYGPFTNMPTDQLEWMVQLCGASVVKELSSFTLGTGVHPIVVVQPDAWTEDNGFHAIGQMCEAPVVTREWVLDSVPLYQCQELDTYLIPQIPHSHY
B2: BRCA1 BRCT M1652I (domain or fragment, UniProt P38398 1646-1863, looked up)
chain: B1 chain with M7I, P198A
B3: BRCA1 BRCT M1775R (domain or fragment, UniProt P38398 1646-1863, looked up)
chain: B1 chain with M130R, P198A
B4: BRCA1 BRCT G1788D (domain or fragment, UniProt P38398 1646-1863, looked up)
chain: B1 chain with G143D, P198A
B5: BRCA1 BRCT V1808A (domain or fragment, UniProt P38398 1646-1863, looked up)
chain: B1 chain with V163A, P198A
B6: BRCA1 BRCT G1706A (domain or fragment, UniProt P38398 1646-1863, looked up)
chain: B1 chain with G61A, P198A
B7: BRCA1 BRCT R1699L (domain or fragment, UniProt P38398 1646-1863, looked up)
chain: B1 chain with R54L, P198A
B8: BRCA1 BRCT M1783T (domain or fragment, UniProt P38398 1646-1863, looked up)
chain: B1 chain with M138T, P198A
B9: BRCA1 BRCT G1788V (domain or fragment, UniProt P38398 1646-1863, looked up)
chain: B1 chain with G143V, P198A
B10: BRCA1 BRCT R1699Q (domain or fragment, UniProt P38398 1646-1863, looked up)
chain: B1 chain with R54Q, P198A
B11: BRCA1 BRCT R1751Q (domain or fragment, UniProt P38398 1646-1863, looked up)
chain: B1 chain with R106Q, P198A
B12: BRCA1 BRCT D1692N (domain or fragment, UniProt P38398 1646-1863, looked up)
chain: B1 chain with D47N, P198A
B13: BRCA1 BRCT R1699W (domain or fragment, UniProt P38398 1646-1863, looked up)
chain: B1 chain with R54W, P198A
B14: BRCA1 BRCT T1773S (domain or fragment, UniProt P38398 1646-1863, looked up)
chain: B1 chain with T128S, P198A
B15: BRCA1 BRCT L1664P (domain or fragment, UniProt P38398 1646-1863, looked up)
chain: B1 chain with L19P, P198A
B16: BRCA1 BRCT V1736A (domain or fragment, UniProt P38398 1646-1863, looked up)
chain: B1 chain with V91A, P198A
B17: BRCA1 BRCT V1665M (domain or fragment, UniProt P38398 1646-1863, looked up)
chain: B1 chain with V20M, P198A
B18: BRCA1 BRCT D1778N (domain or fragment, UniProt P38398 1646-1863, looked up)
chain: B1 chain with D133N, P198A
B19: fluorescently labeled phosphopeptide VNKpSYFND-fluorescein (peptide)
peptide: VNK[pS]YFND-fluorescein

Biological target: B19
Experiment: fluorescence polarisation

fold reduction in affinity against wild type [fold]	fold increase in affinity against wild type [fold]	Binder
≤ 1.5		B1
~1.4		B2
~1.4		B3
≤ 1.5		B4
≤ 1.5		B5
~1.4		B6
~100		B7
≤ 1.5		B8
~1.4		B9
~100		B10
~1.4		B11
~1.4		B12
~300		B13
~1.4		B14
~1.4		B15
~5		B16
~1.4		B17
	~1.5	B18

biological target: BRCA1 BRCT domains, wild type (residues 1646-1863) (UniProt P38398 1646-1863); experiment: fluorescence polarisation

Kd [nM]	Binder
112 ± 6	B19
